This note sets out measurements from the supplement of paper PMC10567573.

This series can be described thus: protein stability index of a GFP-peptide fusion (GPS, HEK-293T) (PSI 1-6); higher = more stable.
Where [1] appears, read: treatment: DMSO, c terminus: a fixed tail appended.
The mark [2] stands for this setting: treatment: MLN4924 1 uM, 8 h, c terminus: a fixed tail appended.
Setting [3] is: treatment: DMSO, c terminus: native.
Setting [4] is: treatment: MLN4924 1 uM, 8 h, c terminus: native.

± gives the standard deviation.
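Note: 24-mer peptide tiles fused after GFP, lentivirally expressed, FACS-sorted into six equal bins by GFP/DsRed ratio, decoded by Illumina sequencing, PSI is the read-weighted mean bin number.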

Regarding SLAYCLACGGGHLLPYFYIIYMAI [DHCR7], the protein stability index was 2.6 ± 0.64 under setting [1] and 2.45 ± 0.31 under setting [2].
For SLEQANRSLQLRIQELELQAQIHG [TFE3] the same measures were 3.51 ± 0.33 and 3.52 ± 0.19.
For SLERGTALFAQVQRGALPAPDPEL [RSAD1] the same measures were 4.18 ± 0.45 and 4.41 ± 0.38.
The like results for SLLAGTADGSLRMDDPKGDFITLY [M1AP] were, in that order, 2.51 ± 0.22 and 2.44 ± 0.52.
On to SLNLSTEFISSTKRPYAKELETVD [SERPINB5], for which the protein stability index runs as follows: under setting [1], 3.69 ± 0.14; under setting [2], 3.82 ± 0.21.
SLNPDGYEKAYEGGSELGGWSLGR [CPXM2] displayed a protein stability index under setting [2] of 4.29 ± 0.39.
SLSDLEIQASAGVISKKAKVKVPQ [ZNF75A] came in with a protein stability index under setting [1] of 4.44 ± 0.21 and a protein stability index under setting [2] of 4.55 ± 0.14.
For SLVIGALLASLTGGVLIDRYGRRT [SLC2A12] the same measures were 2.89 ± 0.45 and 3.03 ± 0.42.
The like results for SMWTRPQIKDFKEKIQQDADSVIT [ACBD3] were, in that order, 3.88 ± 0.2 and 4.08 ± 0.42.
The like results for SNMCINNTLVCNGLQNCVYPWDEN [NETO1] were, in that order, 3.29 ± 0.082 and 3.36 ± 0.44.
Turning to SNYIFVAIFWIVFLLLIVFYTAIT [P2RY14], the protein stability index is, setting by setting: under setting [1], 2.26 ± 0.26; under setting [2], 2.1 ± 0.41.
The like results for SPEALSLGEVAYHDYHGILVDEEE [ADD1] were, in that order, 5.58 ± 0.27 and 5.54 ± 0.13.
The like results for SPQFEGPLSPPPINYNGIFSLKQE [NEUROD6] were, in that order, 3.96 ± 0.11 and 4.05 ± 0.17.
For SPSPMDPHMAEQTFEQAIQAASRI [CDC25B] the same measures were 4.68 ± 0.16 and 4.56 ± 0.25.
As to SPSTLIGSLRTLELGSESQGASES [HDAC6], the protein stability index is 5.08 ± 0.29 under setting [1] and 4.92 ± 0.33 under setting [2].
For SQFHSVRPQGPQLRQQQHKQNKQV [DNAJC4] the same measures were 4.85 ± 0.12 and 4.87 ± 0.13.
For SQGAISEGAQRDRFPGRKQPGVHE [C22orf31] the same measures were 5.05 ± 0.095 and 5.1 ± 0.18.
The like results for SQGQWGRAWEVDWFSLASVIFLLL [DHCR7] were, in that order, 2.68 ± 0.033 and 2.39 ± 0.48.
Take SQQQPLRNQVVSSTNGELNVDDPT [CSNK1G1]: the protein stability index was determined as 5.36 ± 0.24 under setting [1] and 5.27 ± 0.2 under setting [2].
For SQSILPLEHGSIYIPSSYVDSHHE [ESR2] the same measures were 3.96 ± 0.19 and 3.95 ± 0.17.
The like results for SQYIAVEAAEGRNKNEVFYQCPDQ [FBXO3] were, in that order, 4.46 ± 0.061 and 4.74 ± 0.094.
For SRASAARVGQLQEALNERHSIINA [LRRC45] the same measures were 4.01 ± 0.38 and 3.97 ± 0.19.
SRCRNSYTEQELKPLTLEALGHLG [DLC1]: the protein stability index by setting is: under setting [1], 2.85 ± 0.32; under setting [2], 2.99 ± 0.21.
For SSHSRGPLSWAPCGPIAGSRQALS the same measures were 3.42 ± 0.13 and 3.44 ± 0.17.
For the sequence SSISPGLHSFTDHQRLMKRRKSV [KCNK9], the protein stability index turned out to be 5.64 ± 0.088 under setting [3] and 5.47 ± 0.23 under setting [4].
In the case of SSKEEQKLIATSNKPAVKLLYNRS [KCTD10], the protein stability index is, setting by setting: under setting [1], 3.9 ± 0.27; under setting [2], 4.08 ± 0.48.
For SSNLSLDVLRGNDETIGFEDILND [POMP] the same measures were 5.08 ± 0.17 and 4.94 ± 0.32.
For SSPRGMVRVCDLLLKKKPPQQQHH [ANKRD17] the same measures were 3.2 ± 0.23 and 3.28 ± 0.13.
Regarding SSSRDTDWVVVKEPVIKVAAIDNG [PI4K2A], the protein stability index is, setting by setting: under setting [1], 4.25 ± 0.1; under setting [2], 4 ± 0.11.
For STASTTSTTNSTAAKPAASITSKP [ZNF207] the same measures were 5.15 ± 0.11 and 5.01 ± 0.19.
STNGELNVDDPTGAHSNAPITAHA [CSNK1G1]: the protein stability index under setting [1] was determined as 5.39 ± 0.15 and the protein stability index under setting [2] worked out at 5.29 ± 0.33.
The like results for SVGFQSNEAASLASTGVGVVKVIS [SLC2A12] were, in that order, 3.68 ± 0.64 and 3.6 ± 0.41.
On to SVICRSLPEGMGPGESGQPPPAC [ALKBH7], for which the protein stability index under setting [3] amounted to 2.87 ± 0.71 and the protein stability index under setting [4] was found to be 3.5 ± 0.69.
On to SVSLRKAERLRAELLDLKAGGFSI [MYORG], for which the protein stability index runs as follows: under setting [1], 2.25 ± 0.36; under setting [2], 2.39 ± 0.29.
The like results for SWARQESLQERKQALYEYARRRFT [AUP1] were, in that order, 3.8 ± 0.17 and 3.81 ± 0.12.
The like results for SYFDRGAKGGSRLCTPEGWFSCQG [DFFB] were, in that order, 2.46 ± 0.14 and 2.6 ± 0.18.
For SYHDGYGEALGRDHSEHLSGSSYR [RBMY1A1] the same measures were 4 ± 0.19 and 4.12 ± 0.35.
For the sequence SYKDLDVIFGVELPGNEEFQVVKD [TENT5D], the protein stability index is 3.84 ± 0.24 under setting [1] and 3.88 ± 0.099 under setting [2].
Take SYLDKVRALEEANTELEVKIRDWY [KRT17]: the protein stability index is, setting by setting: under setting [1], 2.97 ± 0.23; under setting [2], 3.07 ± 0.32.
On to TACAVIILTIICYLGLPRLEFYRY [SLC29A1], for which the protein stability index amounted to 3.04 ± 0.18 under setting [1] and 3.1 ± 0.13 under setting [2].
The like results for TAEPFPRLHNLYSTPRCAQQAALP [CBY2] were, in that order, 2.67 ± 0.2 and 2.66 ± 0.24.
The like results for TATREEASTSLPTKPTQGASSASE [CLPTM1] were, in that order, 5.47 ± 0.34 and 5.4 ± 0.46.
For TDEEEGLIWVVGPVLAVVFIICIV [PTPRD] the same measures were 2.1 ± 0.4 and 2.07 ± 0.46.
Consider TDEFRELRATVERMGLMKANHVFF [FADS1], for which the protein stability index by setting is: under setting [1], 2.48 ± 0.56; under setting [2], 2.12 ± 0.21.
The like results for TDLDAVRTPEPLEEFPKREDQEGS [MYBL2] were, in that order, 5.43 ± 0.11 and 5.52 ± 0.21.
For TEGAFGLYRGLAPNFMKVIPAVSI [SLC25A25] the same measures were 1.88 ± 0.51 and 2.39 ± 0.66.
With TEHMKTHTGLKPYECGVCAKKFMW [ZBTB22], the protein stability index runs as follows: under setting [1], 2.65 ± 0.26; under setting [2], 2.77 ± 0.34.
Under setting [2], TEIANCSLKVKFFDLERENACATK [PLD5] yielded a protein stability index of 3.92 ± 0.4.
For the sequence TELVLSDCMLSEEGATLLLRGLCA [LRRC45], the protein stability index reads like this: under setting [1], 2.32 ± 0.3; under setting [2], 2.32 ± 0.24.
For TFEQAIQAASRIIRNEQFAIRRFQ [CDC25B], the protein stability index by setting is: under setting [1], 2.38 ± 0.48; under setting [2], 2.01 ± 0.32.
For TFLVFSKAELGALPHDFIDSLEKT [NLN] the same measures were 2.13 ± 0.26 and 2.5 ± 0.25.
In the case of TFQSHEPEFDYLKSLEIEEKINKI [PPP2R2C], the protein stability index reads like this: under setting [1], 4.74 ± 0.17; under setting [2], 4.81 ± 0.31.
The like results for THRDRPSQQQPLRNQVVSSTNGEL [CSNK1G1] were, in that order, 4.93 ± 0.33 and 4.71 ± 0.36.
The like results for THTQIDQQPPRLLIVHIALPSWAD [M1AP] were, in that order, 2.75 ± 0.59 and 2.68 ± 0.54.
The like results for TIEDEDVKARKQEIIKVTEQLIEA [CAMK2D] were, in that order, 5.25 ± 0.075 and 5.26 ± 0.11.
For TIKSHLKSFSMANGMNAVMMHGRS [RAB40C], the protein stability index was found to be 2.54 ± 0.14 under setting [1] and 2.6 ± 0.23 under setting [2].
Turning to TKFQELQLAAGRHGDDLKNTKNEI [KRT71], the protein stability index under setting [1] was determined as 4.12 ± 0.39 and the protein stability index under setting [2] stood at 4.28 ± 0.13.
For TKVGSFMIRESETKKGFYSLSVRH [SLA] the same measures were 2.68 ± 0.37 and 2.66 ± 0.69.
The like results for TLICRKLGGVKKSATLRSFEGLMG [TPD52L3] were, in that order, 2.06 ± 0.16 and 2.34 ± 0.33.
For TLPKSLSLPTTAPSNSSSLTLSGI [MYBL2] the same measures were 3.87 ± 0.12 and 3.83 ± 0.28.
For the sequence TLSKSEYMVIEEGGMNHSAFPQTP [KCNA3], the protein stability index is, setting by setting: under setting [1], 3.43 ± 0.15; under setting [2], 3.53 ± 0.28.
With TMIRKLEGHHHDVVACDFSPDGAL [WSB1], the protein stability index is, setting by setting: under setting [1], 3.25 ± 0.28; under setting [2], 3.48 ± 0.37.
The like results for TPESTKPGPVCQPPVSQSRSLFSS [ANKRD40] were, in that order, 4.46 ± 0.19 and 4.21 ± 0.21.
The like results for TPLHIAAQNNCPAIMNALIEAGAH [FEM1A] were, in that order, 3.07 ± 0.2 and 3.13 ± 0.23.
The like results for TQSDLYKKTQETLSQAGQKTSAAL [TPD52L2] were, in that order, 4.88 ± 0.067 and 4.93 ± 0.21.
On to TQTTNDGVCQSMCHDKYTKIFNDF [ZMYND11], for which the protein stability index is 3.05 ± 0.2 under setting [1] and 3.27 ± 0.12 under setting [2].
For TRAADLLVNPLDPRNADKIRVKIA [SRPK2] the same measures were 3.64 ± 0.48 and 3.75 ± 0.23.
For TREGFTLLHLAVNSNTPVDDFHTN [FEM1B] the same measures were 2.85 ± 0.17 and 2.95 ± 0.19.
The like results for TRNGEVVTESQKEQRSELDKSSAH [PRPH] were, in that order, 5.06 ± 0.27 and 5.31 ± 0.4.
For TSFNHMDSDKLSGLWSRISHLVLP [TOR1AIP2], the protein stability index under setting [1] was determined as 2.28 ± 0.2 and the protein stability index under setting [2] is 2.33 ± 0.2.
The like results for TSLFLGNGVLLCFYSQEWYARQHC [SOAT1] were, in that order, 2.9 ± 0.8 and 2.91 ± 0.32.
TSPSSNNSSEELSSALHLSKGMSI [NECAB1]: the protein stability index under setting [1] was determined as 4.26 ± 0.19 and the protein stability index under setting [2] came to 4.24 ± 0.16.
